From a protein production outcome set (Wang et al. 2014)

Assay: label from the status in PepcDB records
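Further: failed if final PepcDB status was selected cloned or expressed and not failed if soluble or beyond.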

Sequence	protein production
MKTINLSIFGLGNVGLNLLRIIRSFNEENRLGLKFNVVFVADSLHSYYNERIDIGKVISYKEKGSLDSLEYESISASEALARDFDIVVDATPASADGKKELAFYKETFENGKDVVTANKSGLANFWPEIMEYARSNNRRIRYEATVAGGVPLFSFIDYSVLPSRIKKFRGIVSLTINYFIRELANKREFDDVLSEATKLGIVEKNYKDDLTGLDAARKSVILCNHLYGSSYRLSDVFYEGILDQDRSFGKNERLVTETGIVNGKPSAESRIKSLDSNDYLLTLGKGSLGYQLQTDTNGTLNVSDLYDGPYETAGAVMNDLVILSMFTV	not failed
MKTIQPCSVEDIQSWLIDQFAQQLDVDPDDIDMEESFDNYDLNSSKALILLGRLEKWLGKELNPVLIFNYPTIAQLAKRLGELYL	not failed
MKTIRAILNGKKAGNPELRDAIMKMRDRGVDVQVRVTWESQDMPRLVKEAVTDGIERIVVAGGDGTVNEAASALIHIDHESRPELAIIPLGTANDFATANHIPDSIADALTLAVEGQALSVDCVKANDRCFINVAAAGFGAEVTAETPVELKNFLGGGAYTLTGVVKALGFKPYDGSITIEGGRYDGEMLLGAFCNSRLAGGGQQLAPNAMIDDGLMDLTLVRPFLPHELPKVIEEINNPSEKGEFVKHTRASWLEIDFPNPLPLNLDGEPYHSRKIRFEVQPKSLKLVLPKDCPCVTH	failed
MKTKSWIASLFYSSLCFSSSYAINLHQITITDPIMGSRTITYEQVGEFAVVEGDILIGKAENLKNQGAVITPKVGGSRWPNGVIPYEIAENLPFINKLAILQAIDHWQKNTNLEFVELTSKNRYDYRDYISFIPAEGTTCSSYVGRQGGKQEINLAPRCTTMNTVHEIGHALGMWHEQSRSDRNQYIRIVWENIDEEHKFNFDQHLTDGKDFGEYDYGSIMHYGRFAFSKNGQPTIIPLVDGVEIGQRTHLSEKDIAAVKAMYPET	failed
MKTLKVYIPGIKFPSISVTGNYCALNCAHCGRHYLEGMKKITRLNLVDKCVEMEKEGYVGCLLSGGMDSRLKVPLDKFKDEIREIKEKTRLKINAHVGFIDEDDLEWLKYIDVVSLDFVGDNEVIKRVYKIDKTVNDYLKILDILTKERIKVAPHITIGLDFGRIHWEYEAIDLLSEYPIDVLVLNILIPTPGTEMENVKVSMEEALNVVRYAREEFKGELSIGCMRPFGRWREEFDKRAILIGVDRITNPPRKVIEWAKQFRKVEIHFECCVI	failed
MKTLQTHRVLQALIGHFTPFLESGITELMINTEQELWLYKVNNTREKRGHALFDKAFLLRFCEQLASFRGLFFDEEHPTLNCSIPFTRYRVSANHFSITTNNQITLNIRVPRLKPLSLEDFTFKASDPKSLKDLALKGHNILISGETSSGKTSLLNALLDCVNKDERVVSVEDSQELDLKAFSNCVGLLVGKQENTRFNYEDALNMAMRLNPDRLIVGEIDTRNAALFLRLGNTGHKGMLSTIHANSAQNTLEALSLNLSMRYMYSLDKDLMRAYFKSAIDVIVHVNRINNERQIAEVLWTKEL	failed
MKTNAGRFFEDYRLGETIAHAVPRTVSGGERALYHALYPARHALSSSDEFARACGLPAAPVDELMAFHLVFGKTVPDISLNAVANLGYAEGRWLKPVFPGDTLRAESTVIGLKENSNGASGVVWVRTRGLNQQGEAVLSYVRWVMVRKRDTAAPAPAPTVPELAGSVAASDLVIPEGLSFTDYDLTLAGEPHRWGDYAVGEKIDHVDGVTVEESEHMLATRLWQNTAKVHFDATNRPDGRRLIYGGHVISLARTLSFNGLANAQMIVALNAGAHANPCFAGDTVRAWSEVLDKAETADPGVGALRLRLVAMKHGTEPFVTRSEDGKYLPGVLLDLDYWALVPR	failed
MKTNEVLETIKARRSVRAYDRKQIPADDLNAILEAGAYAPSGMHYETWHFTAVCNTVKLEELNERIKGAFAKSDDKHLRERGHSETYCCYYHAPTLVIVSNEPKQWWAGMDCACAIENMFLAATSLGIASCWINQLGTTCDDPEVRAYLTSLGVPENHKVYGCVALGYKAEGALLKEKTVKAGTITIVE	not failed
MKTPTRVSFEKKIHTPPSGDRDAERSPPKKFLRGLSGKVFRKTPEFKKQQMPTFGYIEESQFTPNLGLMMSKRGNIPKPLNLSKPISPPPSLKKTAGSVASGFSKTGQLSALQSPVNITSSNKYNIKATNLTTSLLRESISDSTTMCDTLSDINLTVMDEDYRIDGDSYYEEDSPTFMISLERNIKKCNSQFSPKRYIGEKCLICEESISSTFTGEKVVESTCSHTSHYNCYLMLFETLYFQGKFPECKICGEVSKPKDKDIVPEMVSKLLTGAGAHDDGPSSNMQQQWIDLKTARSFTGEFPQFTPQEQLIRTADISCDGFRTPRLSNSNQFEAVSYLDSPFLNSPFVNKMATTDPFDLSDDEKLDCDDEIDESAAEVWFSKTGGEHVMVSVKFQEMRTSDDLGVLQDVNHVDHEELEEREKEWKKKIDQYIETNVDKDSEFGSLILFDKLMYSDDGEQWVDNNLVILFSKFLVLFDFEEMKILGKIPRDQFYQVIKFNEDVLLCSLKSTNIPEIYLRFNENCEKWLLPKWKYCLENSSLETLPLSEIVSTVKELSHVNIIGALGAPPDVISAQSHDSRLPWKRLHSDTPLKLIVCLNLSHADGELYRKRVLKSVHQILDGLNTDDLLGIVVVGRDGSGVVGPFGTFIGMINKNWDGWTTFLDNLEVVNPNVFRDEKQQYKVTLQTCERLASTSAYVDTDDHIATGYAKQILVLNGSDVVDIEHDQKLKKAFDQLSYHWRYEISQRRMTPLNASIKQFLEELHTKRYLDVTLRLPQATFEQVYLGDMAAGEQKTRLIMDEHPHSSLIEIEYFDLVKQQRIHQTLEVPNL	failed
MKTTRTCKINSITKEQTEALITLIRTFESAKRYSFNRLIEGESEKELIKKLQLKYLLNKRFCEDAVLQVQTILSSQKELLPVYLENNQKKLEKTLQKKMIMKVAGKTQKKFH	failed
MKTVGVVLSGCGVLDGAEIHESVLTMLALDRAGAEVLFFAPDKPQLHVINHITGEIVAEERNVLVESARIARGLITPLSAADPEVLDALIVPGGFGAAKNLCDFAIKGGECSVEPDLYKLIQLMHKSGKPIGLMCISPVMLPKLLGKPIRLTIGNDPDTIDAIEIMGGEHVICPADDVVIDLENKVVTTPAYMLAGSISEAAKGIDKLVTKVLDLTE	failed
MKTVNIGLIGAGRIGQLHASNIISSPYMELKAVSDVQLDHLKGTEIERSVEIMTTNPDELFSNRDIDAIFICSSTDTHAAFIKAAALAGKHIFCEKPISFHVTETKGALNIVNEAGVKFQVGFNRRYDKHFRRVQECVQAGAIGAPHIIRVSSRDPEAPPLSYVERSGGMFMDMTIHDFDMVRYLSGSEVTEVSVKAANLVDSRIGEVGDVDTAIITLMLENGAIAVIDNSRQAAYGYDQRVEVFGSLGSVSADNERKTNVQISTKDTVTLDLPKHFFLDRYEQAYKDEVAEFATAILEDQPLRCTGEDGYKAELLALAAKQSWLENRPVAVKDVEVLEEHAKSE	failed
MKVFFNKIPLALSSLVLALFSLSNQISQYTLFSQGIWLIAVFGFFLVLGRPIIGYRQTQEDLHNPVIASAFPSFFMAAFLFAGRLPLAQADLSIAWIVVLIGLYIAYIIFFSLRFLRPLVLEQVYPSWFVVYVGPAINLVTIPDSIPNSTKALILGLTGLATLALFPLIFWRMRRLAIPQPVLPILAILAAPLALLITSSIKSGQKPDTILLVGLLIFSQLFFFFALGLFTRLVNKGFVPLFAAFSFPLVNSINAFKAATTSLGLVNPATQLVYKVEFVFVLVIMTYLLYHFLKLLYKALIQALNTKKQAGSV	failed
MKVFIIGAAGGIGNRLSSLLHARGDAVSGMHRNLEQASKITDTGATAVLGDLIHNSTEELAELFRGHDAIVFSAGAHGTGQENTTLIDGAGLRKAADAASAANVSRFILVSAFPESSRGENTTENFEHYMKVKKSADVYLSHTDLDWVIVRPGVLQDEAGDGLVTAGLAINYGNVARDNVAAFIDEALHQPQLSKIIVELTDGSTPVAEAVERLIKLEHHHHHH	not failed
MKVGIDAGGTLIKIVQESQQGRSYETKLTTNISEVIAWLNANTFESISLTGGNAGVIAENLNVDATIFVEFDASSKGLGMLLKEQGHHIDEYIFANVGTGTSLHYFDGKQQRRVGGVGTGGGMIQGLGYLLSQITDYEALTNLAQSGDRDTIDLKVKHIYKDTEPPIPGELTAANFGNVLHNLDVDFSPANKLASVVGVVGEVITTMAITVARENKTENVVYIGSSFNNNPLLREVIEDYTVLRGFKPYYIENGAFSGALGAIYLN	failed
